Laboratory results taken from US20140256041A1.

Target: Human GPR49 (LGR5), full length, on cells (human) (UniProt O75473)
Experiment: cell-based or functional assay

Human GPR49 (LGR5), full length, on cells (human), sequence (O75473 22-907 limits assumed): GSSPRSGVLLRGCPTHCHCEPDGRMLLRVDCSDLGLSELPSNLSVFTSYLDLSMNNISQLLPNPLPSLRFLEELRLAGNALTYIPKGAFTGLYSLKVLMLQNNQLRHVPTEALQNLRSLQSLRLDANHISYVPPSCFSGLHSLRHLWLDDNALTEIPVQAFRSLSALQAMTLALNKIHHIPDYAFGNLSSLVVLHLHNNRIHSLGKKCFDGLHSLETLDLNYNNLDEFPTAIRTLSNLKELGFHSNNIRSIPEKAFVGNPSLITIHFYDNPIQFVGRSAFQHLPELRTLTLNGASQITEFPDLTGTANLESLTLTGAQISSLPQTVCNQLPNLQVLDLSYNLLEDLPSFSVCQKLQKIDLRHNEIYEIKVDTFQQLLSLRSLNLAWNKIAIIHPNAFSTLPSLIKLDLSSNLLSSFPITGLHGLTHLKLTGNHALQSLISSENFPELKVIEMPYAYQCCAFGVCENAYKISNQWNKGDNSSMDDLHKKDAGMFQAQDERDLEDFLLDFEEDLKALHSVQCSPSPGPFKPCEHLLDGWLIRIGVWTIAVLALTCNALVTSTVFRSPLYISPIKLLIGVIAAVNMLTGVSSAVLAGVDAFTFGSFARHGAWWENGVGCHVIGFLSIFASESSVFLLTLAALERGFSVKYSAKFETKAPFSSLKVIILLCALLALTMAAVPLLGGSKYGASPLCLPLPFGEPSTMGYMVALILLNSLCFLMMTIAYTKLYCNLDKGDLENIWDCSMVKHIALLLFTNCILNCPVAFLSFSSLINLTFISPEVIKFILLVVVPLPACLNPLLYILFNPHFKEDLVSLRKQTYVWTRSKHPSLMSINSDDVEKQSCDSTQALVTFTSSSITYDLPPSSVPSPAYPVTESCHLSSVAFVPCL

increase in proliferation, GPR49-3T3 clone 28: 4 fold
Substance: R-spondin 1 (ligand)
